Results from patent US12391751B2, “Antibody against advanced glycation end products and use thereof” (Bloom Technology Corporation, priority 2018, dated 2025).

B1: SJ-5: mouse monoclonal antibody raised against GAL13-MSA; heavy-chain variable region SEQ ID NO 4, light-chain variable region SEQ ID NO 8 (antibody, listed as Mus musculus, V domains shown)
VH: EVMLVESGGRLVKPGGSLKLSCAASGFTFSSYGMSWVRQTPEKRLEWVATISGGGSYTYYPDSVKGRFTISRDNVKNNLYLQMSSLRSEDTALYYCARRGAYGDYGWFAYWGQGTLVTVSA
VL: DIVLTQSPATLSVTPGDSVSLSCRASQSINNNLHWYQQKSHESPRLLIKCASQSISGIPSRFSGSGSGTDFTLSINSVETEDFGMYFCQQSNSWPLTFGAGTKLELK
B2: PB-1: mouse monoclonal antibody raised against A-peak-BSA; heavy-chain variable region SEQ ID NO 18, light-chain variable region SEQ ID NO 22 (antibody, listed as Mus musculus, V domains shown)
VH: EVRLQQSGPELVKPGTSVKISCKASGYSFTGYYMHWVKQSPVKSLEWIGRIIPYNGATSYNQNFKDKASLTVDKSSRTAYMDLHSLTSEDSAVYYCARSRYYGRAPYYFDYWGQGTTLTVSS
VL: DVVVTQTPLSLPVSLGDQASISCRSSQSIVHSNGNTYLEWYLQKPGQSPKLLIYKVSNRFSGVPDRISGSGSGTDFTLKISRVEAGDLGVYSCFQGSHVPFTFGSGTKLEIK

Experiments:
CEL-BSA = CEL-BSA (Bos taurus, UniProt P02769); assay: Specificity of SJ-5 by competitive ELISA (Example 7); format: binding; conditions: GAL13-BSA or Glycer-AGEs-BSA immobilized, POD-labeled SJ-5 0.4 μg/mL
Sequence of CEL-BSA (P02769 25-607): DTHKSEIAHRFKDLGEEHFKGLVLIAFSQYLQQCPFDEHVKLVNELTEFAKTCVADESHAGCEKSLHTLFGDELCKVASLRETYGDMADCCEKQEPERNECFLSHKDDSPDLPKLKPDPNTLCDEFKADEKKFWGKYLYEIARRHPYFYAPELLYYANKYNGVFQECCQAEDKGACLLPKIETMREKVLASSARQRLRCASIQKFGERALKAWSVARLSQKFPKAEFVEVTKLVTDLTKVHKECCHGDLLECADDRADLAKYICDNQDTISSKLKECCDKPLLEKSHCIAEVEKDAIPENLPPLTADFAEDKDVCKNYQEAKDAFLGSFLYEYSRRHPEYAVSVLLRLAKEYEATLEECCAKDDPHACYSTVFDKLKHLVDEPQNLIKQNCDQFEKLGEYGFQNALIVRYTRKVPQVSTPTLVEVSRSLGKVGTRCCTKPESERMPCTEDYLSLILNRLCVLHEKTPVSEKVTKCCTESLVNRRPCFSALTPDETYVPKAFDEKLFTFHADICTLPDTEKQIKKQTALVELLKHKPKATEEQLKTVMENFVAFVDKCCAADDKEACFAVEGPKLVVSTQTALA
Procedure: (§1) GAL13-BSA or Glycer-AGEs-BSA prepared into 1 μg/mL with PBS (pH 7.4) was added as an immobilized antigen at 100 μL/well to a 96-well microtiter plate (NUNC) and left at 25° C. for 1 hour. The antigen was immobilized overnight at 4° C. The plate was washed three times with PBS containing 0.05% (v/v) Tween 20 (PBS-T) and then blocked with a carbonate buffer solution (pH 9.5) containing 0.5% (w/v) gelatin for 1 hour. A POD-labeled SJ-5 antibody (0.4 μg/mL) was prepared under the same conditions as in Example 6. In order to confirm specificity, BSA containing AGEs derived from glucose (Glu-AGEs-BSA), BSA containing AGEs derived from glycolaldehyde (Glycol-AGEs-BSA), BSA containing AGEs derived from methylglyoxal (MGO-AGEs-BSA), BSA containing AGEs derived from glyoxal (GO-AGEs-BSA), BSA containing N^ε-carboxymethyllysine (CML-BSA), BSA containing N^ε-carboxyethyllysine (CEL-BSA), and bovine serum albumin (BSA) were added at 50 μL/well to the antigen-immobilized plate in the same way as above, and the POD-labeled SJ-5 antibody (50 μL) was further added thereto, and stirred with a plate mixer, and then left standing at room temperature for 1 hour. After washing, an o-phenylenediamine solution (100 μL) prepared into 0.5 mg/mL with a 0.1 M citrate-phosphate buffer solution (pH 5.0) containing 0.02% (w/v) hydrogen peroxide was added to each well and left standing at 25° C. for 10 minutes. Then, color reaction was terminated by the addition of a 1 M sulfuric acid solution (50 μL) to each well. Then, absorbance at 490 nm was measured with a microplate reader.

CML-BSA = CML-BSA (Bos taurus, UniProt P02769); assay: as above; format: binding; conditions: GAL13-BSA or Glycer-AGEs-BSA immobilized, POD-labeled SJ-5 0.4 μg/mL
Sequence of CML-BSA (P02769 25-607): as above
Procedure: as §1

GO-AGEs-BSA = GO-AGEs-BSA (Bos taurus, UniProt P02769); assay: as above; format: binding; conditions: GAL13-BSA or Glycer-AGEs-BSA immobilized, POD-labeled SJ-5 0.4 μg/mL
Sequence of GO-AGEs-BSA (P02769 25-607): as above
Procedure: as §1

Glu-AGEs-BSA = Glu-AGEs-BSA (Bos taurus, UniProt P02769); assay: as above; format: binding; conditions: GAL13-BSA or Glycer-AGEs-BSA immobilized, POD-labeled SJ-5 0.4 μg/mL
Sequence of Glu-AGEs-BSA (P02769 25-607): as above
Procedure: as §1

Glycol-AGEs-BSA = Glycol-AGEs-BSA (Bos taurus, UniProt P02769); assay: as above; format: binding; conditions: GAL13-BSA or Glycer-AGEs-BSA immobilized, POD-labeled SJ-5 0.4 μg/mL
Sequence of Glycol-AGEs-BSA (P02769 25-607): as above
Procedure: as §1

MGO-AGEs-BSA = MGO-AGEs-BSA (Bos taurus, UniProt P02769); assay: as above; format: binding; conditions: GAL13-BSA or Glycer-AGEs-BSA immobilized, POD-labeled SJ-5 0.4 μg/mL
Sequence of MGO-AGEs-BSA (P02769 25-607): as above
Procedure: as §1

Fru-AGEs-BSA = Fru-AGEs-BSA (Bos taurus, UniProt P02769); assay: as above; format: binding; conditions: GAL13-BSA or Glycer-AGEs-BSA immobilized, POD-labeled SJ-5 0.4 μg/mL
Sequence of Fru-AGEs-BSA (P02769 25-607): as above

HUVEC = assay: Neutralization test of vascular endothelial cell lumen formation inhibition using PB-1 (Example 35); format: cell-based, human; conditions: PB-1 pre-reacted with Glycer-AGEs-BSA; HUVEC, 8 hours
Procedure: Matrigel matrix was prepared by the same operation as in Example 14.
10 μL of Glycer-AGEs-BSA (10 mg/mL) prepared in Example 1, 10 μL of phosphate-buffered saline (PBS, FUJIFILM Wako Pure Chemical Corp.), and 90 μL of the PB-1 antibody (10 mg/mL) or a control antibody (10 mg/mL) were added to a 1.5 mL tube (Watson) and left standing at room temperature for 10 minutes. Then, a supernatant was recovered by centrifugation at 14000 rpm for 15 minutes using a centrifuge (Thermo Fisher Scientific Inc.).
(3) A lumen formation inhibition test was conducted by the same operation as in Example 14. As shown in the drawing, HUVEC was confirmed to form a lumen in the Matrigel matrix in the control BSA addition group. […] Furthermore, this inhibition of lumen formation was neutralized by the reaction solution of PB-1.

[1] = system: protein modified with the novel structure in human serum; assay: Western blotting of human serum protein purified with PB-1 antibody column (Example 37); format: binding; conditions: PB-1 as primary antibody; versus secondary antibody only
Procedure: The solvent for the PB-1 antibody was replaced with a coupling buffer solution (0.2 M sodium carbonate, 0.5 M NaCl, pH 8.3) through a PD10 column (GE Healthcare Japan Corp.) to prepare 1 mL of a 10 mg/mL PB-1 antibody solution. The coupling support used was NHS-activated Sepharose 4 Fast Flow (GE Healthcare Japan Corp.). 10 mL of 1 mM HCl cooled in an ice bath was injected to 1 mL of NHS-activated Sepharose 4 Fast Flow, immediately thereafter mixed with the preliminarily prepared 10 mg/mL PB-1 antibody solution, and mixed by inversion (4° C., overnight) using a rotator (Taitec Corp.) so that the PB-1 antibody was immobilized to the coupling support. Then, 3 mL each of a buffer solution for blocking (0.1 M Tris-HCl, pH 8.0) and a buffer solution for washing (0.1 M sodium acetate, 0.5 M NaCl, pH 5.0) was injected thereto in order, and this operation was repeated three times. Finally, the solvent was replaced by the injection of 10 mL of PBS, followed by storage at 4° C.
The purification sample used was human serum (pool) (Cosmo Bio Co., Ltd.). […] Each fraction obtained by purification was analyzed by electrophoresis (SDS-PAGE) according to a routine method. […]

Molecule	specificity: reactivity with CEL-BSA (CEL-BSA)	specificity: reactivity with CML-BSA (CML-BSA)	specificity: reactivity with GO-AGEs-BSA (GO-AGEs-BSA)	specificity: reactivity with Glu-AGEs-BSA (Glu-AGEs-BSA)	specificity: reactivity with Glycol-AGEs-BSA (Glycol-AGEs-BSA)	specificity: reactivity with MGO-AGEs-BSA (MGO-AGEs-BSA)	specificity: reactivity with Fru-AGEs-BSA (Fru-AGEs-BSA)	neutralization of lumen formation inhibition by Glycer-AGEs-BSA (HUVEC)	protein band detection in Western blotting [1]
B1	negative	negative	negative	negative	positive	negative	negative	–	–
B2	–	–	–	–	–	–	–	neutralized	a band was detected
